Measured values published in patent US20190100587A1 (COVAGEN, published 2019).
Read-outs that look alike come from different tables or passages of the source.

What was measured:
[1] = molecular target: T1, human recombinant FcγRI (Sino Biological) (human, UniProt P12314 16-288, limits assumed); assay: SPR (BIAcore), FcγRI on chip, 1:1 Langmuir model
T1 construct: Amine-coupled to a BIAcore CM5 chip (1500 RU); also called CD64

[2] = molecular target: T1, human recombinant FcγRI (Sino …); assay: SPR (BIAcore), FcγRI on chip, kinetic (koff/kon)
[3] = molecular target: T1, human recombinant FcγRI (Sino …); assay: SPR (BIAcore), FcγRI on chip, steady-state model
[4] = molecular target: T2, human recombinant FcRn (Sino Biological) (human, UniProt P55899 24-297; P61769 21-119); assay: SPR (BIAcore), FcRn on chip, pH 6.0, steady-state model
T2 construct: Amine-coupled to a CM5 chip (600 RU); also called neonatal Fc receptor

[5] = molecular target: T3, human recombinant FcγRIIIA (158F; R&D Systems) (human, UniProt P08637 17-208); assay: SPR (BIAcore), FcγRIIIA 158F on chip, 1:1 Langmuir model
T3 construct: Amine-coupled to a BIAcore CM5 chip (1400 RU); also called CD16A

[6] = molecular target: T3, human recombinant FcγRIIIA (158F; R&D …); assay: SPR (BIAcore), FcγRIIIA 158F on chip, kinetic (koff/kon)
[7] = molecular target: T3, human recombinant FcγRIIIA (158F; R&D …); assay: SPR (BIAcore), FcγRIIIA 158F on chip, steady-state model
[8] = molecular target: T4, Human C1q (EMD Millipore) (human, UniProt P02745 23-245; P02746 28-253; P02747 29-245); assay: SPR (BIAcore T100), antibody on CM5 chip, C1q injected, steady-state model
[9] = molecular target: T5, His-tagged human FcγRI (R&D, carrier-free formulation) (human, UniProt P12314 16-288); assay: AlphaScreen competition on His-tagged FcγRI; competitor biotinylated B21M LALA IgG1
T5 construct: also called CD64; human FcγR1

[10] = molecular target: T6, human CD3 on CD3+ Jurkat cells (human); assay: flow cytometry on CD3+ Jurkat cells, bound antibody detected with anti-human IgG-Alexa488
T6 construct: whole, on cells

[11] = molecular target: T7, His-tagged human FcγRIIA (R&D, carrier-free formulation) (human, UniProt P12318 36-218, limits assumed); assay: AlphaScreen competition assay; titrated antibody competes with biotinylated B21M IgG1 for His-tagged human FcγRIIA
T7 construct: also called CD32A
T7 sequence (looked up): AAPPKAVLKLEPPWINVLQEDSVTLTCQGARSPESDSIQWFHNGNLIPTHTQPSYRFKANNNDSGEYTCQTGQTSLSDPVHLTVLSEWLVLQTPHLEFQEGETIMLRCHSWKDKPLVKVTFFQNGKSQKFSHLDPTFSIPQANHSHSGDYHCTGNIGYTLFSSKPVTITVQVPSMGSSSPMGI

[12] = molecular target: T7, His-tagged human FcγRIIA (R&D, …); assay: as above; remark: listed apart in the source
[13] = molecular target: T8, His-tagged human FcγRIIB (R&D, carrier-free formulation) (human, UniProt P31994 46-217, limits assumed); assay: AlphaScreen competition assay; titrated antibody competes with biotinylated B21M IgG1 for His-tagged human FcγRIIB
T8 construct: also called CD32B
T8 sequence (looked up): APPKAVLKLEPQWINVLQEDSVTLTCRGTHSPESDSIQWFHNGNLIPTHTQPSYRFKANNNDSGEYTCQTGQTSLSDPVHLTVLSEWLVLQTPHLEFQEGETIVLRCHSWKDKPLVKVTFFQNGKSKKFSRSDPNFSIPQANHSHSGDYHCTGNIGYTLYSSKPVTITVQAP

[14] = molecular target: T9, His-tagged human FcγRIIIA (R&D, carrier-free formulation) (human, UniProt P08637 17-208); assay: AlphaScreen competition assay; titrated antibody competes with biotinylated B21M IgG1 for His-tagged human FcγRIIIA
T9 construct: also called CD16A

[15] = molecular target: T9, His-tagged human FcγRIIIA (R&D, …); assay: as above; remark: listed apart in the source
[16] = molecular target: T4, Human C1q (EMD Millipore); assay: SPR (BIAcore T100), antibody amine-coupled on a CM5 chip, human C1q injected
[17] = molecular target: T3, human recombinant FcγRIIIA (158F; R&D …); assay: SPR (BIAcore), human FcγRIIIA (158F) amine-coupled on a CM5 chip, antibody injected
[18] = molecular target: T5, His-tagged human FcγRI (R&D, …); assay: AlphaScreen competition on His-tagged FcγRI; competitor biotinylated B21M LALA IgG1; remark: listed apart in the source
[19] = molecular target: T5, His-tagged human FcγRI (R&D, …); assay: AlphaScreen competition assay; titrated antibody competes with biotinylated B21M LALA IgG1 for His-tagged human FcγRI

T3 sequence (P08637 17-208 limits assumed): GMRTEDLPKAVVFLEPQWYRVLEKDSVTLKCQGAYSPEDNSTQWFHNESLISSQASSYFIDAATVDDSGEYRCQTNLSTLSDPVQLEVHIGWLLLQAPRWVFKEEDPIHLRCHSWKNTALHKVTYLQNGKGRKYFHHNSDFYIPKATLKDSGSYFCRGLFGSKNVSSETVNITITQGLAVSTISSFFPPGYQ
T5 sequence (P12314 16-288 limits assumed): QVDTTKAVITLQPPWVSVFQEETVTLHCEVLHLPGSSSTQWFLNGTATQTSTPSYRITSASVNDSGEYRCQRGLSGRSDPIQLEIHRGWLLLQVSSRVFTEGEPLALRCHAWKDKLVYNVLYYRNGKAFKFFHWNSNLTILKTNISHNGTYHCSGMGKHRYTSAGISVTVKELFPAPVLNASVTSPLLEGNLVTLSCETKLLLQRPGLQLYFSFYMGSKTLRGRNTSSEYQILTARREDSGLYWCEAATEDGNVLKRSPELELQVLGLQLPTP
T1 sequence (P12314 16-288 limits assumed): as above
T2 sequence (P55899 24-297 limits assumed, chain 1 of 2): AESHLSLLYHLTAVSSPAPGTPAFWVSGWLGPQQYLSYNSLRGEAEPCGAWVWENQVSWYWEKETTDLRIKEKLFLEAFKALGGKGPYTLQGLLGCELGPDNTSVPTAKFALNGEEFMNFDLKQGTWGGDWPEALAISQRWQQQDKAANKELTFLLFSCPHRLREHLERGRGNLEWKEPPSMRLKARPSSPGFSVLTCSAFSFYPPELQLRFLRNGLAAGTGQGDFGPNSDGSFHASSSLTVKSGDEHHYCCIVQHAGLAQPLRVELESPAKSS
T2 sequence (P61769 21-119 limits assumed, chain 2 of 2): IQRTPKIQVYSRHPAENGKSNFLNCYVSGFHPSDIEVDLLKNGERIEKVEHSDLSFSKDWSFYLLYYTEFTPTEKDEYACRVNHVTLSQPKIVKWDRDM
T9 sequence (P08637 17-208 limits assumed): as the sequence (P08637 17-208 limits assumed) above
T4 sequence (P02745 23-245 limits assumed, chain 1 of 3): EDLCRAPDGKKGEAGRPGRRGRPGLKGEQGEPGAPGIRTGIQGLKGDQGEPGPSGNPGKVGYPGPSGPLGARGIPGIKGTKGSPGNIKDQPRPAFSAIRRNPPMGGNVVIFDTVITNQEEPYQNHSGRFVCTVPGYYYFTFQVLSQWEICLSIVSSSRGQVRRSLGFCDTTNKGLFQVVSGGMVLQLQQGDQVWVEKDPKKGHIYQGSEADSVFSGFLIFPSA
T4 sequence (P02746 28-253 limits assumed, chain 2 of 3): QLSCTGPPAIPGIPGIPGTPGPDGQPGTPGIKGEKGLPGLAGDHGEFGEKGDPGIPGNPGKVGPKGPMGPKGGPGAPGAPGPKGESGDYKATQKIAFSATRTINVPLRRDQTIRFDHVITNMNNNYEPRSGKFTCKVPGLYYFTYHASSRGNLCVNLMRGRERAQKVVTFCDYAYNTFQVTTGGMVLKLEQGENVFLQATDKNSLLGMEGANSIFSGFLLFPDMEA
T4 sequence (P02747 29-245 limits assumed, chain 3 of 3): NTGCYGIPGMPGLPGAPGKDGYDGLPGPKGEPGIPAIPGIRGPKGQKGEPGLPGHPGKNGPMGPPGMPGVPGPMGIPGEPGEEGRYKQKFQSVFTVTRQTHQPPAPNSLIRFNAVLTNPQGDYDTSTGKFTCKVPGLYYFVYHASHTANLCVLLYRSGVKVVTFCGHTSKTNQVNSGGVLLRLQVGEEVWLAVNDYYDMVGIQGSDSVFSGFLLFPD
T6 sequence (P07766 23-207, chain 1 of 4): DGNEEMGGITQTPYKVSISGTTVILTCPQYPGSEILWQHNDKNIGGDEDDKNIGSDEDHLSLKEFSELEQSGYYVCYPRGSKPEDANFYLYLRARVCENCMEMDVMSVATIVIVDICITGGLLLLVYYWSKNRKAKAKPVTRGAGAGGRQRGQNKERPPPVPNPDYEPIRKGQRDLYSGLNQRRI
T6 sequence (P09693 23-182, chain 2 of 4, further chain): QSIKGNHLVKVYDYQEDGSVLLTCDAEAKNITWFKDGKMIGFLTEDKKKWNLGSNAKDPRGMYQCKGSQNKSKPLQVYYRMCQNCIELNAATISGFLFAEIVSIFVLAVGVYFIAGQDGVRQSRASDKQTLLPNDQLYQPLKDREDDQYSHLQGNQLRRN
T6 sequence (P04234 22-171, chain 3 of 4, further chain): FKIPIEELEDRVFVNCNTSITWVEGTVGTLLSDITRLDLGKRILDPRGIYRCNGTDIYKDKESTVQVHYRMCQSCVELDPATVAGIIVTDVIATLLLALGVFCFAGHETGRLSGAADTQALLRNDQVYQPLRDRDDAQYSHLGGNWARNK
T6 sequence (P20963 22-164, chain 4 of 4, further chain): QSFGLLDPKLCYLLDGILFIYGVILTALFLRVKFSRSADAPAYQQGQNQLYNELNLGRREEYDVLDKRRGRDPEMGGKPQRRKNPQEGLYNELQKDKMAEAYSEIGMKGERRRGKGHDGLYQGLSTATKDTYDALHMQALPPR

B1: mAb1 IgG1 (antibody)
heavy: not shown
light: QVVLTQSPAIMSAFPGEKVTMTCSASSSVSYMNWYQQKSGTSPKRWIYDSSKLASGVPARFSGSGSGTSYSLTISSMETEDAATYYCQQWSRNPPTFGGGTKLQITRTVAAPSVFIFPPSDEQLKSGTASVVCLLNNFYPREAKVQWKVDNALQSGNSQESVTEQDSKDSTYSLSSTLTLSKADYEKHKVYACEVTHQGLSSPVTKSFNRGEC
notes: Human IgG1 antibody specific to human CD3, wild-type Fc; also called unmodified IgG; unmutated mAb1 IgG1
[1]
  koff: 0.00729 s⁻¹
  kon: 64900 M⁻¹ s⁻¹
[2]
  Kd: 112 nM
[3]
  Kd: 243 nM
[4]
  Kd: 470 nM
[5]
  koff: 0.0214 s⁻¹
  kon: 31800 M⁻¹ s⁻¹
[6]
  Kd: 674 nM
[7]
  Kd: 956 nM
[8]
  Kd: 30 nM
[9]
  IC50: 2.27 nM
  IC50 relative to IgG1: 1 fold
[10]
  EC50 (read off the curve): ~0.1 nM
[11]
  IC50 (read off the curve): ~200 nM
[12]
  IC50 (read off the curve): ~200 nM
[13]
  IC50 (read off the curve): ~200 nM
[14]
  IC50 (read off the curve): ~40 nM
[15]
  IC50 (read off the curve): ~40 nM

B2: mAb1 DANAPA IgG1 (antibody)
heavy: QVQLQQSGAELARPGASVKMSCKASGYTFTRSTMHWVKQRPGQGLEWIGYINPSSAYTNYNQKFKDKATLTADKSSSTAYMQLSSLTSEDSAVYYCASPQVHYDYNGFPYWGQGTLVTVSAASTKGPSVFPLAPSSKSTSGGTAALGCLVKDYFPEPVTVSWNSGALTSGVHTFPAVLQSSGLYSLSSVVTVPSSSLGTQTYICNVNHKPSNTKVDKKVEPKSCDKTHTCPPCPAPELLGGPSVFLFPPKPKDTLMISRTPEVTCVVVAVSHEDPEVKFNWYVDGVEVHNAKTKPREEQYASTYRVVSVLTVLHQDWLNGKEYKCKVSNKALAAPIEKTISKAKGQPREPQVYTLPPSREEMTKNQVSLTCLVKGFYPSDIAVEWESNGQPENNYKTTPPVLDSDGSFFLYSKLTVDKSRWQQGNVFSCSVMHEALHNHYTQKSLSLSPGK
light: QVVLTQSPAIMSAFPGEKVTMTCSASSSVSYMNWYQQKSGTSPKRWIYDSSKLASGVPARFSGSGSGTSYSLTISSMETEDAATYYCQQWSRNPPTFGGGTKLQITRTVAAPSVFIFPPSDEQLKSGTASVVCLLNNFYPREAKVQWKVDNALQSGNSQESVTEQDSKDSTYSLSSTLTLSKADYEKHKVYACEVTHQGLSSPVTKSFNRGEC
notes: mAb1 with Fc mutations D265A, N297A, P329A (EU numbering); also called DANAPA Fc mutated mAb1
[4]
  Kd: 500 nM
[16]
  binding result: no binding (tested: 200 nM C1q)
[9]
  IC50: > 1000 nM
  IC50 relative to IgG1: > 400 fold
[17]
  binding result: no binding (tested: 2000 nM)
[10]
  EC50 (read off the curve): ~0.08 nM

B3: mAb2 D5 C-LC DANAPA IgG1 (bispecific antibody)
heavy: EVQLVESGGGLVQPGGSLKLSCAASGFTFNTYAMNWVRQAPGKGLEWVARIRSKYNNYATYYADSVKDRFTISRDDSKNTAYLQMNSLKTEDTAVYYCVRHGNFGDSYVSWFAYWGQGTLVTVSSASTKGPSVFPLAPSSKSTSGGTAALGCLVKDYFPEPVTVSWNSGALTSGVHTFPAVLQSSGLYSLSSVVTVPSSSLGTQTYICNVNHKPSNTKVDKKVEPKSCDKTHTCPPCPAPELLGGPSVFLFPPKPKDTLMISRTPEVTCVVVAVSHEDPEVKFNWYVDGVEVHNAKTKPREEQYASTYRVVSVLTVLHQDWLNGKEYKCKVSNKALAAPIEKTISKAKGQPREPQVYTLPPSREEMTKNQVSLTCLVKGFYPSDIAVEWESNGQPENNYKTTPPVLDSDGSFFLYSKLTVDKSRWQQGNVFSCSVMHEALHNHYTQKSLSLSPGK
light: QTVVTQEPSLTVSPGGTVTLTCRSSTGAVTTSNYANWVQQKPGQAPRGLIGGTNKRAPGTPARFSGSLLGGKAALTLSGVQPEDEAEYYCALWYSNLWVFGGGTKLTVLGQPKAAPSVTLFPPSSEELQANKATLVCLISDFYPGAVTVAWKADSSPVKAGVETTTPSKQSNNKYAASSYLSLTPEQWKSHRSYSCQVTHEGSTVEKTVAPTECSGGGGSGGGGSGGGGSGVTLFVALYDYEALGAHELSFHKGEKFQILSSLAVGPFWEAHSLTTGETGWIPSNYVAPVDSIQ
notes: also called CD3/CD33 bispecific FynomAb with Fynomer D5; FynomAb with the DANAPA IgG Fc
[18]
  IC50: 800 nM
[19]
  IC50 (read off the curve): ~200 nM
